{
  "source": "paper PMC8411024",
  "about": "(Biomolecules & Therapeutics, 2021)",
  "binders": {"B1": {"name": "SOSTΔ (24-169) (domain or fragment, human, UniProt Q9BQB4 24-169, looked up)", "chain": "QGWQAFKNDATEIIPELGEYPEPPPELENNKTMNRAENGGRPPHHPFETKDVSEYSCRELHFTRYVTDGPCRSAKPVTELVCSGQCGPARLLPNAIGRGKWWRPSGPDFRCIPDRYRAQRVQLLCPGGEAPRARKVRLVASCKCKR"}},
  "target": "T1, Human LRP6 E1E2 (21-630) (human, UniProt O75581 21-630)",
  "T1 sequence (looked up)": "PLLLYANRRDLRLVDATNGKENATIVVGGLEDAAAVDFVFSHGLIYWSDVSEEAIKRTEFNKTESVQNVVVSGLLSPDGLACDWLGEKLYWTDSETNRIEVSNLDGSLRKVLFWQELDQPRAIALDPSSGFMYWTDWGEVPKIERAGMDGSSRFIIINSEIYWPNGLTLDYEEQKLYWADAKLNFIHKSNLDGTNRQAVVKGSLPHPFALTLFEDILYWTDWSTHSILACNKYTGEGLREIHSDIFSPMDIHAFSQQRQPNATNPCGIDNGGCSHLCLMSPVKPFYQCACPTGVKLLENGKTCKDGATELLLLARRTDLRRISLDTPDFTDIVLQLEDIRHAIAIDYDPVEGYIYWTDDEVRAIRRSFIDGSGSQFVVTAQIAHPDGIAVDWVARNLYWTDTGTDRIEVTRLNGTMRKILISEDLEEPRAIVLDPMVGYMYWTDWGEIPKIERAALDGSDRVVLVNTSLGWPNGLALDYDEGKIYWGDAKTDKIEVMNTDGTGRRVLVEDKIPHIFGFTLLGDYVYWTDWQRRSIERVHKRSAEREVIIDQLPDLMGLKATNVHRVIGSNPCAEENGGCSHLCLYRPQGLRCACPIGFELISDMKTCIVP",
  "assay": "HDX-MS",
  "data": [
    {"binder": "B1", "values": [
      {"measurement": "binding result", "value": "binds"}
    ]}
  ]
}
